The source of these data is patent publication US20070248589A1 (GOVERNMENT OF THE UNITED STATES OF AMERICA AS REPRESENTED …, published 2007).

Assay [1] has as its system 293T cells. The experiment in a line: Propidium iodide staining for apoptosis. It is filed as cell-based, human. Conditions: 24 to 72 hours after transfection. From the text:
Propidium iodide is a commonly known fluorescent compound, which intercalates into double-stranded nucleic acids. It is excluded by viable cells but can penetrate cell membranes of dying or dead cells. Thus, apoptotic cells may be identified by staining (and, in particular, nuclear staining) with propidium iodide.
Approximately 0.5-1.0×10^6 293T cells were transfected with SPATIAL-EGFP using either calcium phosphate (Mammalian Transfection Kit; Stratagene, La Jolla, Calif.) or Lipofectanine (Invitrogen, Rockville, Md.) in accordance with the manufacturers' instructions. Twenty-four (24) to 72 hours after transfection, the transfected cells were sorted. Approximately 1-5×10^5 sorted cells were resuspended in a solution contain 50 μg/ml propidium iodine, 0.1% sodium citrate and 0.1% Triton X-100 and incubated overnight to lyse the cells and stain the nuclei. Then, the sample was analyzed by flow cytometry to identify sub-diploid amounts of DNA which indicates cell death via apoptosis.

The subject of assay [2] is 293T cells. The experiment in a line: Cell growth analysis: number of fluorescent (EGFP-positive) cells after transient transfection. Format: cell-based, human. The procedure: Human embryonic kidney (293T) cells were maintained in DMEM supplemented with 10% heat-inactivated FBS, 2 mM glutamine, 100 U/ml penicillin, and 0.1 mg/ml streptomycin Cells were grown at 37° C. in a humidified atmosphere with 5% CO2.
The day before transfection, the cells were trypsinized (if needed), counted and plated in a 24-well plate at the density of 7.5×10^4 cells per well with 0.5 ml of their normal growth medium containing serum without antibiotics. On the day of transfection, cells were transfected according to the recommended protocol using 1.0 μg of each plasmid DNA and 3 μl of Lipofectamine 2000 in each well. The cells were kept at 37° C. in a CO2 incubator for 24 hours. […] The number of EGFP-positive cells was calculated using fluorescence-activated cytometry (FACS) analysis at various time points after transfection.
In representative experiments, approximately 0.5-1×10^6 293T cells were transiently transfected with approximately 1-10 μg of either SPATIAL EGFP expression vector or EGFP expression vector by calcium phosphate precipitation using the Mammalian Transfection Kit (Stratagene) in accordance with the manufacturer's instructions. The number of fluorescent EGFP- or SPATIAL-EGFP-transfected cells was monitored over time using flow cytometry or microscopic examination. […]

Assay [3] has as its system 293T cells. Nature of the assay: DiI cell division analysis by FACS. It is filed as cell-based, human. Conditions: 4-day period, FIG. 7. The procedure:
293T cells were transfected with expression plasmid for EGFP alone (pEGFPN1; Clontech) or EGFP-SPATIAL(L). Twenty four (24) hours later, transfected cells were reacted with 3H-Indolium, 2-[3(1,3-dihydro-3,3-dimethyl-1-octacdecyl-2H-indol-2-ylidene)-propenyl]-3,3-dimethyl-octacdecyl-, perchlorate (DiI; Molecular Probes, Eugene, Oreg.) a fluorescent compound that […] binds to lipids. EGFP-positive and/or EGFP-negative cells were analyzed by FACS on the day after transfection and 1 hour after DiI labeling (Day 0) and four days after transfection (Day 4) as indicated.
To directly examine division of SPATIAL EGFP transfected cells, the lipophilic dye, 3H-Indolium, 2-[3-(1,3-dihydro-3,3-dimethyl-1-octacdecyl-2H-indol-2-ylidene) 1-propenyl]-3,3-dimethyl-1-octacdecyl-, perchlorate (DiI). DiI becomes highly fluorescent when it interacts with cell membranes and is equally portioned to each daughter cell during cell division. This property has been used to monitor cell divisions based on the reduction of dye in successive generations, which can be monitored using FACS analysis (Huang et al., Blood, 94(8):2595-2604, 1999). DiI was chosen so that the generational analysis could be done on EGFP-positive cells.

Assay [4] deals with Hb12 cells. The experiment in a line: Bcl-2 expression assay, SPATIAL-EGFP transfected Bcl-2 expressing thymocyte cell line. It is filed as cell-based, mouse. Conditions: transient transfection by electroporation. How it is done: (§1) The mouse thymocyte cell line Wehi 7.2 and its variant Wbcl-2, which over expresses bcl-2, were maintained in DMEM supplemented with 10% heat-inactivated FBS, 2 mM glutamine, 100 U/ml penicillin, and 0.1 mg/ml streptomycin. Cells were grown at 37° C. in a humidified atmosphere with 5% CO2.
(§2) Transient transfections were performed using either lipids (Lipofectamine 2000 or FreeStyle 293 Expression System, each supplied by Invitrogen, Rockville, Md.) or calcium phosphate (Mammalian Transfection Kit; Stratagene, La Jolla, Calif.) or electroporation. Manufacturer instructions were followed for lipid and calcium phosphate transfections. For electroporation, the following procedure was used: Before transfection, Wehi cell and Wbcl-2 cells were counted and suspended in fresh complete DMEM without antibiotics at 5×10^5 cells/ml in a 15 cm dish. On the day of transfection, the cells were washed with PBS twice and were suspended in serum free DMEM at 6.25×10^6 cells/mL Aliquots of 800 μl cell suspension were transferred to a 4 mm electroporation cuvette and 10 μg of plasmid DNA solution was added. After 10 minutes incubation on ice, the cells were electroporated under the condition of 310 V, 725 ohms resistance, and 1050 μF capacitance. The transfected cells were incubated on ice for 10 minutes and suspended in complete DMEM in 10 cm dishes at the density of 7.5×10^4 viable cells/ml. […]

The test system of assay [5] is caspase. The experiment in a line: Caspase activation flow cytometry assay (PhiPhi Lux). Format: cell-based. Conditions: SPATIAL-EGFP transfected cells. From the text:
Caspase activation plays a central role in the execution of apoptosis (e.g., Budihardjo et al., Ann. Rev. Cell. Dev. Biol., 15:269-90, 1999).
On the technique in general: In flow cytometry, cells or beads pass a laser one at a time.

Assay [6] concerns Wehi7.2 cells. Nature of the assay: Bcl-2 expression assay, SPATIAL-EGFP transfected thymocyte cell line. It is filed as cell-based, mouse. Conditions: transient transfection by electroporation. How it is done: as §1, §2
Assay [7] deals with T1, HA-tagged SPATIAL (Mus musculus, UniProt Q7TSD4).
T1 construct: expressed in transfected cells; host or cells: 293T human kidney epithelial cells, calcium phosphate transfection
T1 sequence (Q7TSD4 with tags, fused parts or gaps isoform Q7TSD4-6 limits assumed): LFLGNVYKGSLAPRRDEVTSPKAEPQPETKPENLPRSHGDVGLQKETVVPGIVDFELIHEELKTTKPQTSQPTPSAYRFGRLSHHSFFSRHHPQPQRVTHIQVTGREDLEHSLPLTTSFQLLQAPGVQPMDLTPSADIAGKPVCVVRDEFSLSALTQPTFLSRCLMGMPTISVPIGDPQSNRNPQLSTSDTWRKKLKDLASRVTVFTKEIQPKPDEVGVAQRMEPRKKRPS
T1 sequence (Q8C878 224-462 P243X partner limits assumed): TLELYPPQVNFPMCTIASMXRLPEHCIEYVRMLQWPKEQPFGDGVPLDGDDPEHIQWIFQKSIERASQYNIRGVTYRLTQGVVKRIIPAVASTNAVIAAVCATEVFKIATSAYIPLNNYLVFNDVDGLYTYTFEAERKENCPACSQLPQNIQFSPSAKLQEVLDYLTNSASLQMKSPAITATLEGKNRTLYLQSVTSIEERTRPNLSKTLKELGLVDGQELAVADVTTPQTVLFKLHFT
Nature of the assay: Co-immunoprecipitation of SPATIAL and Uba3 from transfected 293T cells. Format: binding. Conditions: only in samples that contained HA-tagged SPATIAL, FIG. 15. How it is done: Expression vectors encoding Myc-346 and HA-tagged SPATIAL were transfected alone or in combination into 293T cells by calcium phosphate precipitation (Mammalian Transfection Kit; Stratagene, La Jolla, Calif.) in accordance with manufacturer's instructions. Total protein lysates were prepared and immunoprecipitated with an anti-HA antibody, as described in Ausubel et al., Current Protocols in Molecular Biology, Greene Publishing Associates, updated November 2003, Chapter 20, Analysis of Protein Interactions, Unit 20.5, Detection of Protein-Protein Interaction by Coprecipitation. The immunoprecipitated proteins were separated by SDS-PAGE and transferred to a membrane for Western blotting using an anti-Myc antibody.

Assay [8] concerns the target T2, GST-SPATIAL(L) (Mus musculus, UniProt Q7TSD4).
T2 construct: made in house
T2 sequence (Q7TSD4 with tags, fused parts or gaps isoform Q7TSD4-6 limits assumed): T1 sequence (Q7TSD4 with tags, fused parts or gaps isoform Q7TSD4-6 limits assumed)
The experiment in a line: GST pulldown assay with GST-SPATIAL long isoform. Format: binding. Conditions: 35S-methionine labeled in vitro translated protein. How it is done: Eighteen cDNA clones identified in the yeast two-hybrid system were tested in an in vitro glutathione-S-transferase (GST) pulldown assay, as described in Ausubel et al., Current Protocols in Molecular Biology, Greene Publishing Associates, updated November 2003, Chapter 20, Analysis of Protein Interactions, Unit 20.2, Affinity Purification of Proteins Binding to GST Fusion Proteins.
Briefly, a GST-SPATIAL fusion construct was produced by cloning SPATIAL cDNA(s) into pGEx5X1 expression vector using standard molecular cloning techniques. GST or GST-SPATIAL fusion protein were expressed in 1-1000 ml bacterial cultures grown for 3-4 hours until OD600 reached 0.5. Then, plasmid expression was induced for 1.5-4 hours by the addition of ITPG to a final concentration of 0.11 mM. GST or GST-fusion proteins were purified using glutathione-Sepharose beads as described in Ausubel et al., Current Protocols in Molecular Biology, Greene Publishing Associates, updated November 2003, Chapter 20, Analysis of Protein Interactions, Unit 20.2, Affinity Purification of Proteins Binding to GST Fusion Proteins.
A coupled in vitro transcription and translation system (Promega) was used according to the manufacturer's instructions to produce radiolabeled protein from cDNAs to be tested. Radiolabeled proteins were mixed with either purified GST or GST-SPATIAL. Then, GST-containing protein complexes were purified by centrifugation from the reaction mixtures using glutathione-coated Sepharose beads. Bound proteins were eluted from the beads with SDS-PAGE loading buffer heated to 72-85° C., separated on polyacrylamide gels, and visualized by autoradiography. Specific interactions between GST-SPATIAL and in vitro translated proteins were indicated by the presence of a radiolabeled in vitro translated protein in the GST-SPATIAL-containing samples, but not in the GST-alone samples.
GST pulldown assays were performed as described in Example 9 using GST-SPATIAL(L) and GST-SPATIAL(S) and each of the Uba3 mutants described in this example.

B1: SPATIAL-EGFP: SPATIAL isoform fused to enhanced green fluorescent protein, expressed from pEGFPN1 (protein)
chain: T1 sequence (Q7TSD4 with tags, fused parts or gaps isoform Q7TSD4-6 limits assumed)
modifications: left off: large carriers
notes: SPATIAL isoform fused to enhanced green fluorescent protein, expressed from pEGFPN1
Take B1: in assay [1], the “apoptosis based on nuclear morphology of propidium iodide stained cells” value is “no evidence of apoptosis”. For the same molecule, the “increase in the number of fluorescent cells” value in assay [2] (four day period post-transfection, FIG. 6) is on record as “no increase”. Besides, in assay [2] (two-week period post-transfection, G418 selection), the “increase in the number of fluorescent transfected cells” value is recorded as 2-3 fold. The “cell division of EGFP-positive cells” value in assay [3] is listed as “effectively blocked the majority of transfected cells from dividing”. Further, the “cell growth of transfected cells” value in assay [4] and in assay [6] was “profound suppression of cell growth” each time. For the same molecule, the caspase activation entry in assay [5] was “No caspase activation was detected”.

B2: Myc-346: Myc-tagged Uba3-clone 346, carboxyl terminus of Uba3, residues 203 to 441 of SEQ ID NO: 6 (protein, listed as Mus musculus)
chain: TLELYPPQVNFPMCTIASMPRLPEHCIEYVRMLQWPKEQPFGDGVPLDGDDPEHIQWIFQKSIERASQYNIRGVTYRLTQGVVKRIIPAVASTNAVIAAVCATEVFKIATSAYIPLNNYLVFNDVDGLYTYTFEAERKENCPACSQLPQNIQFSPSAKLQEVLDYLTNSASLQMKSPAITATLEGKNRTLYLQSVTSIEERTRPNLSKTLKELGLVDGQELAVADVTTPQTVLFKLHFT
modifications: not fully specified (N-terminus); also: Myc tag
Turning to B2, the “co-immunoprecipitation by anti-HA antibody” value in assay [7] is recorded as “reproducibly immunoprecipitated”. The “interaction with GST-SPATIAL(L)” value in assay [8] was “specifically interacted”.
